Legend:
Ub-LysGlyTAMRA = Ub-LysGlyTAMRA (UniProt P0CG48); assay: fluorescence polarisation
[1] = target: UCH-L5_(M148A/F149A) (human)
[2] = target: UCH-L5 (full-length, wild type) (human)
[3] = target: RPN13 DEUBAD domain (aa 265-388) (human) (UniProt Q16186); assay: ITC

Chain of UniProt P0CG48 (P0CG48 whole entry, looked up): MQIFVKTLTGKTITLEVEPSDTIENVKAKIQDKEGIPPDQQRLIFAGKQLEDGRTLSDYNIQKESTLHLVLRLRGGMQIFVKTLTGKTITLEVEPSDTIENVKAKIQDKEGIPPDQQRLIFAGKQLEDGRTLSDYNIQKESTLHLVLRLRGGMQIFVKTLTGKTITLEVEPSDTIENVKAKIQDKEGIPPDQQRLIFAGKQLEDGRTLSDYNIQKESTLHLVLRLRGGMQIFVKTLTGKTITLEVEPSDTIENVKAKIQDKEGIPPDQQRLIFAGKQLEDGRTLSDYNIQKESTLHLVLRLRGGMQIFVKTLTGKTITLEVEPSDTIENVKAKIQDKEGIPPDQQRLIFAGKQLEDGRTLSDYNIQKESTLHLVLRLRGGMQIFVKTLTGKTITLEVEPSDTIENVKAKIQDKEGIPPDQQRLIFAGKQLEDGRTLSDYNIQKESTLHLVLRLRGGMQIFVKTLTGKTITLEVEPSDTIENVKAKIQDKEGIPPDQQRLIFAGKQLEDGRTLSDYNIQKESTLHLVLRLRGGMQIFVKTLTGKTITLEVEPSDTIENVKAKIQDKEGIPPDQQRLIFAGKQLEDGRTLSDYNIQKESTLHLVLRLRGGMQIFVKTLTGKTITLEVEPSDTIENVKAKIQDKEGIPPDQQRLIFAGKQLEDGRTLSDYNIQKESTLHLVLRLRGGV

## UCH-L5 (C88A)/RPN13DEU complex (from UniProt Q9Y5K5-3;Q16186)
Ub-LysGlyTAMRA
  Kd: 2.3 µM

## RPN13 DEUBAD domain (aa 265-388) (from UniProt Q16186 265-388) (domain or fragment)
[1]
  activation of Ub-AMC hydrolysis by the addition of RPN13^DEU: 2.7 fold
[2]
  activation of Ub-AMC hydrolysis by the addition of RPN13^DEU: 7 fold

## UCH-L5 (full-length, wild type) (enzyme)
[3]
  Kd: 0.006 µM

Source: paper PMC4352763
